In paper PMC10578488:

Molecular target: recombinant PRMT5/MEP50 complex (human) (UniProt O14744)
Assay: SEC; PRMT5/MEP50 and purified U7 6S combined (molar ratio 4:8 or 4:2) in 20 mM Hepes pH 7.7, 100 mM NaCl, 2 mM DTT, 1 h on ice; Superose 6

recombinant PRMT5/MEP50 complex (human), sequence (O14744 whole entry, chain 1 of 2): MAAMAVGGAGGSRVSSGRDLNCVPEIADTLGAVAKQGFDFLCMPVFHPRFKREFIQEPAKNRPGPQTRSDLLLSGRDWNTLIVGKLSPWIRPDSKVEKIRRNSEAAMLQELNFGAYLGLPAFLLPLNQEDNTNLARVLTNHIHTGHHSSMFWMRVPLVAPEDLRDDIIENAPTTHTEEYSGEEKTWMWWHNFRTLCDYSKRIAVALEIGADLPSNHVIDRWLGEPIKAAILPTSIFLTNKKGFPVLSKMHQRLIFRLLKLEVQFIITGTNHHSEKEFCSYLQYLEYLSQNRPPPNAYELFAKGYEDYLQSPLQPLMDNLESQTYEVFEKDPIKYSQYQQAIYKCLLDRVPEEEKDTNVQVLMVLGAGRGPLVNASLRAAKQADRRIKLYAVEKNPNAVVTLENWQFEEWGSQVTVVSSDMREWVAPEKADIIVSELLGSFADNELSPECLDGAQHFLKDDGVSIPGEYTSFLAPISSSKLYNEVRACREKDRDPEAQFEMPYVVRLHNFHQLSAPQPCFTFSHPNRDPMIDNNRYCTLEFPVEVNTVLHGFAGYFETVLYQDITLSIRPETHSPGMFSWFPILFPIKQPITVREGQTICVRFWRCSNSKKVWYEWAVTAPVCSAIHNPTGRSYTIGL
recombinant PRMT5/MEP50 complex (human), sequence (Q9BQA1 whole entry, chain 2 of 2, further chain): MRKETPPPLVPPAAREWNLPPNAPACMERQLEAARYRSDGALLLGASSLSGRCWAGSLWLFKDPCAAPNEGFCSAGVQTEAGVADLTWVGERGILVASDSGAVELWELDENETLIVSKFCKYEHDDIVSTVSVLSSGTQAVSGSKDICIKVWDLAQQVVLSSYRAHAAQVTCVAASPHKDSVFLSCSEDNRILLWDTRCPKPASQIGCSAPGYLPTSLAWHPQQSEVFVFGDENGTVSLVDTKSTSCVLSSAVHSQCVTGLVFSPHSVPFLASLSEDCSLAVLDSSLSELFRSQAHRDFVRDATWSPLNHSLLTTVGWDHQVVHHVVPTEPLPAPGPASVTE

U7 6S complex (MBP-Lsm10/11ΔNL heterodimer, SmE/F/G heterotrimer and pICln) (from UniProt Q969L4 1-123; P83369 153-360; P62304 1-92; P62306 1-86; P62308 1-76; Q61189 1-236)
stoichiometry N (U7 6S per PRMT5/MEP50 heterooctamer): 1
